Here are results for nine molecules from article PMC11162469, “Discovery of RXFP2 genetic association in resistant hypertensive men and RXFP2 antagonists for the treatment of resistant hypertension” (Scientific Reports, 2024).

As a reminder, the IC50 is the concentration that gives 50% inhibition. A word on the Cmax: it is the peak of the concentration-time curve. The term Tmax denotes the time at which the peak concentration occurs.

In one series the target is human RXFP2 (Homo sapiens, UniProt Q8WXD0). Kind of series: INSL3-stimulated cAMP assay in HEK293 stably expressing human RXFP2. The conditions noted are these: read-out: HEK293-human RXFP2 cAMP IC50; INSL3 EC80-stimulated cAMP, stable expression; N = 2.
The target in series [1] is T1, rat RXFP2 (Rattus norvegicus, UniProt F7EMH8). Kind of series: INSL3-stimulated cAMP assay in HEK293 stably expressing rat RXFP2.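 On all read-outs here: cAMP measured with an HitHunter kit in 384-well plates, 11-point dose–response curves up to 1 µM antibody, four-parameter variable-slope fit.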 Particulars: INSL3 EC80-stimulated cAMP, stable expression, N = 2; for IC50: read-out: HEK293-rat RXFP2 cAMP IC50. Background: cAMP levels reflect the balance of adenylyl cyclase and phosphodiesterase activity.
Protocol: (§3) RXFP activity assays were developed in HEK293 with stable expression of RXFP2 or RXFP1.
(§4) The same approach was used to generate stable HEK293 lines expressing human and rat RXFP1 and RXFP2 cDNA. The cAMP assay was conducted using the Eurofin Hithunter kit per manufacturer’s instructions in a 384-well format. All dose curve fitting and EC50 and IC50 determinations were performed in Prism (v9.3.0) using the non-linear fit, variable slope (four parameter) function.
For series [2], the target named is T1, rat RXFP2. The series is described as follows: INSL3-stimulated CYP11B1 mRNA expression in H295R stably expressing rat RXFP2. In kind it is cell-based. On the set-up: expressed in transfected cells. Particulars: INSL3 EC80 (3.5 nM), 48 h, qPCR; N = 2. As for the experimental part:
(§1) RXFP2 antagonists were added to H295R-rRXFP2 before addition of INSL3 EC80 (3.5 nM) for 48 h, whereupon the cells and supernatants were collected. CYP11B1 and CYP11B2 mRNA were determined by qPCR and the RXFP2 blocker potencies were calculated (Fig. 5a). Fifteen antibodies have IC50s < 50 nM, and three of the top antibodies (1F2, 4G6, and 2D4) were selected for evaluation in steroid hormone secretion assays by ELISA.
(§2) Data entered as XY table, with x = [Inhibitor] (nM) and y = CYP11B2 or CYP11B1 fold change.
On the technique in general: In qPCR the cycle at which signal appears reflects the starting amount.

The nature of series [3]: Pharmacokinetic study of RXFP2 mAbs in rat. The series is classed as in vivo, Wistar Han rats. Particulars: for half-life, extrapolated values: Wistar Han rats, 1 mg/kg sc., over 28 days; for AUClast / Cmax / Tmax: male Wistar Han rats, 1 mg/kg s.c., n = 3, mean ± SD. The procedure: For the pharmacokinetic study of RXFP2 mAbs in rat, 1G1, 2D4, 4B1, 4G6, 1F2, and 3F3 were prepared in phosphate buffered saline (0.100 mg/mL) with low endotoxin (≤ 0.76 EU/mL). Adult male Wistar Han rats (n = 3/mAb) were administered 1 mg/kg subcutaneously (10 mL/kg). Blood samples (100 µL) were collected in EDTA containing tubes at 0.25, 3, 6 24, 48, 96, 168 (day 7), 336 (day 14), 504 (day 21), and 672 (day 28) hours post dose, immediately centrifuged (6100 rpm), and 50 µL plasma stored at − 80 °C until assay. Rats maintained health throughout the study and were anesthetized (isoflurane to effect) and euthanized on day 28.
Frozen rat plasma samples were thawed and analyzed using a qualified analytical method based on sample dilution, followed by Electrochemiluminescence immunoassay analysis. The lower limit of quantification (LLQ) was 0.1 µg/mL using a 10 µL aliquot of 51-fold diluted rat plasma with a higher limit of quantification (HLQ) of 10 µg/mL. RXFP2 mAbs were captured with LDLa protein and detected with sulfo-tag labeled mouse anti-rat IgG2b. The computer systems that were used to acquire and quantify data included Gyrolab Workstation Version 8.1.5 and Watson LIMS version 7.6.1. Rat pharmacokinetic parameters were calculated by non-compartmental analysis (NCA) analysis using WinNonlin Phoenix 64 (version 8.3). Values are reported in mean ± standard deviation.

Series [4] deals with T1, rat RXFP2. Kind of series: INSL3-stimulated CYP11B2 mRNA expression in H295R stably expressing rat RXFP2. In kind it is cell-based. On the set-up: expressed in transfected cells. Particulars: INSL3 EC80 (3.5 nM), 48 h, qPCR; N = 2. As for the experimental part: as §1, §2

T1 sequence (F7EMH8 20-737): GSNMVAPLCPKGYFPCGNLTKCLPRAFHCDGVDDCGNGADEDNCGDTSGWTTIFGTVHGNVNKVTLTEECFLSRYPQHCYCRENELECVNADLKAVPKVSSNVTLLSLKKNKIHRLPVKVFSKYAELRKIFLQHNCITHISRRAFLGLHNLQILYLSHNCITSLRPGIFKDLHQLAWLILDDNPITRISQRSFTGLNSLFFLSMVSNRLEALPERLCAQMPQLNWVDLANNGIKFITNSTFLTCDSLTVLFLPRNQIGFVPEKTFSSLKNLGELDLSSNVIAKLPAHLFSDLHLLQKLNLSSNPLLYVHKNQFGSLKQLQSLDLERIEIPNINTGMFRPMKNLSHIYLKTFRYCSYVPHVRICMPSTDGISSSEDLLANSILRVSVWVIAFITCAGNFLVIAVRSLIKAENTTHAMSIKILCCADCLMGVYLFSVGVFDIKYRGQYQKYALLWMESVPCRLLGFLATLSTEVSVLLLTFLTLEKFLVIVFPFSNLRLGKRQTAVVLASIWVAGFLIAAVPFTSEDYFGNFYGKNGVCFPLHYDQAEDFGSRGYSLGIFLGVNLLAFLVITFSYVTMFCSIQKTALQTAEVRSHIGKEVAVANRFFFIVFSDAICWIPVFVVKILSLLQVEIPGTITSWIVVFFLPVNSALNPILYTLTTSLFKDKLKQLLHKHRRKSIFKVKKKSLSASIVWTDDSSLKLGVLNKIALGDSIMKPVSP
human RXFP2, sequence (Q8WXD0 whole entry): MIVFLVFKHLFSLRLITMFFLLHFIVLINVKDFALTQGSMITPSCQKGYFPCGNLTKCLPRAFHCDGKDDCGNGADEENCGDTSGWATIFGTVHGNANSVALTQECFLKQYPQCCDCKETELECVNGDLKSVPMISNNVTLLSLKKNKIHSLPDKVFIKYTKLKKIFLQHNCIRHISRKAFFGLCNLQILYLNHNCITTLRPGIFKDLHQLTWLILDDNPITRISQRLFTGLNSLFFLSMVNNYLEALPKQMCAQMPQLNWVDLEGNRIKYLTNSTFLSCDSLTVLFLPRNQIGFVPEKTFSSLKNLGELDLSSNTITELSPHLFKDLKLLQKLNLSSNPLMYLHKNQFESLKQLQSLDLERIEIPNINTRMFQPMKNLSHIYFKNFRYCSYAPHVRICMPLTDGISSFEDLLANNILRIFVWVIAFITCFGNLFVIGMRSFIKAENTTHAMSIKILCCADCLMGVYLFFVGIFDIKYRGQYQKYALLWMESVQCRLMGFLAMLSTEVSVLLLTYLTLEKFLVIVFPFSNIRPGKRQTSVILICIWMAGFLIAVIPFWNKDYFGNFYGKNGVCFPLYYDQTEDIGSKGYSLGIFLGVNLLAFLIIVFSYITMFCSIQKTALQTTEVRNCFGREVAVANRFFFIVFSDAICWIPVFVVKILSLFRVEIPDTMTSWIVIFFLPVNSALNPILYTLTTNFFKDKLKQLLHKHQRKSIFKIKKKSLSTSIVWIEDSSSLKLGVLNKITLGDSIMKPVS
Protocol for human RXFP2: as §3, §4

B1: 4H1: RXFP2 monoclonal antibody from hybridoma, recombinantly expressed in a rat IgG2b backbone (antibody, V domains shown)
VH: QIQLVQSGPELKKPGETVKISCKTSGYTFTKYPMHWVKQAPGEGLKWMGWINTYSGLPTFADDFKGRFAFSLETSANTADLQINNLKNEDMATYFCAREGKKLSGYFDYWGQGTTLTVSS
VL: DIKMTQSPSSMYASLGERVTITCKASQDINSYLTWFQQKPGQSPKTLIYRANRFVDGVPSRFSGSGSGQDYSLTITSLEYEDMGIYYCLQYDEFPYTFGGGTQLEIK
Turning to B1, the IC50 in the series with human RXFP2 was approximately 218 nM; with rat RXFP2 [1], 150 nM. Further, the “HEK293-rat RXFP2 cAMP % Max Response” value with rat RXFP2 [1] is listed as 69.7%.

B2: 1G1: RXFP2 monoclonal antibody from hybridoma, recombinantly expressed in a rat IgG2b backbone (antibody, V domains shown)
VH: EVQLQQSGPELVKPGASVKMSCKASGYTFTDYNMHWVKQKPGQGLEWIGYINPYNDGTEYNEKFKGKATLTSDKSSSTAYMDLSSLTSEDSAVYYCARGLWFAMNYWGQGTSVTVSS
VL: DIQMTQSSSSFSVSLGDRVTITCKASEDIYNRLAWYQQKPGNTPRLLISGATILETGVPSRFSGSGSGKDYTLSIISLQTEDVATYYCQQYWIIPPTFGGGTKLEIK
For the molecule B2, in the series with rat RXFP2 [2], it took 0.27 nM to reach half-maximal inhibition (IC50). In series [3], the “half-life, extrapolated values” was not below 264 h; the AUClast came out at 4490 ± 467 µg·h/mL; the Cmax is listed as 9820 ± 766 ng/mL; the Tmax came to 120 ± 42 h. Moreover, in series [3] (from trough concentration, dose-linearity assumed), the “estimated dose to achieve tenfold higher IC50 HEK-rRXFP2 cAMP activity for approximately 28 days in rat” value was “approximately 10 mg/kg”. Besides, in the series with rat RXFP2 [1], the “HEK293-rat RXFP2 cAMP % Max Response” value was determined as 87.2% and the IC50 stood at 28 nM. The IC50 with rat RXFP2 [4] came to 0.17 nM.

B3: 3F3: RXFP2 monoclonal antibody from hybridoma, recombinantly expressed in a rat IgG2b backbone (antibody, V domains shown)
VH: QVQLQQPGSVLVRPGASVKLSCKASGYIFTSYWMHWVKQRPGQGLEWIGEIYPNSGRTSYNEKFKGKATVTVDTSSSTAYVDLSSLTSEDSAVYYCASGGHWFAYWGQGTLVTVSA
VL: DIQMTQSSSSFSVSLGDRVTITCKASEDIYNRLAWYQQKPGNAPRLLISGATSLEAGVPSRFSGSGSGKDYTLSITSLQTEDVSTYYCQQYWITPYTFGGGTKLEIK
In the series with rat RXFP2 [2], B3 yielded an IC50 of 3.85 nM. Also, in series [3], the “half-life, extrapolated values” is not below 264 h; the AUClast came to 987 ± 200 µg·h/mL; the Cmax was 2350 ± 858 ng/mL; the Tmax was 168 ± 0 h. Besides, in the series with rat RXFP2 [1], the “HEK293-rat RXFP2 cAMP % Max Response” value worked out at 78.5% and the IC50 worked out at 37 nM. The same molecule had an IC50 in the series with rat RXFP2 [4] of 0.51 nM.

B4: 3F1: RXFP2 monoclonal antibody from hybridoma, recombinantly expressed in a rat IgG2b backbone (antibody, V domains shown)
VH: QVQLKESGPGLVAPSQSLSITCTVSGFSLTDYGVSWIRQPPGKGLEWLGVIWGGGSTDYNPALKSRLSISKDNSKSQVFLKMNSLQADDTAMYYCVKHEGYYAMDYWGQGTSVTVSS
VL: DIQMTQSPASLSVSVGETVTITCRASENIYSNLAWYQQKQGKSPHLLVYAVTNLADGVPSRFSGSGSGTQYSLKINSLQSEDFGSYYCQHFWGTPYTFGGGTKLEIK
Regarding B4, the IC50 with human RXFP2 is approximately 589 nM; in the series with rat RXFP2 [2], 0.27 nM; with rat RXFP2 [1], 19.9 nM; with rat RXFP2 [4], 0.23 nM. The “HEK293-rat RXFP2 cAMP % Max Response” value in the series with rat RXFP2 [1] is reported as 69.7%.

B5: 3G4: RXFP2 monoclonal antibody from hybridoma, recombinantly expressed in a rat IgG2b backbone (antibody, V domains shown)
VH: QVQLKESGPGLVAPSQSLSITCTVSGFSLTSYGVSWVRQPPGKGLEWLGVIWGDGSTNYHSALISRLSISKDNSKSQVFLKLNSLQTDDTATYYCAKSLGYYAMDYWGQGTSVTVSS
VL: DIQMTQSPASLSVSVGETVTITCRASENIYSNLVWYQQKQGKSPQLLVYAATNLAEGVPSRFSGSGSGTQYSLKINSLQSEDFGSYYCQHFWGPPWTFGGGTKLEIK
Regarding B5, the IC50 with rat RXFP2 [2] came to 0.33 nM; with rat RXFP2 [1] it was 16.1 nM; in the series with rat RXFP2 [4] it was 0.2 nM. In addition, in the series with rat RXFP2 [1], the “HEK293-rat RXFP2 cAMP % Max Response” value came out at 83.3%.

B6: 4A5: RXFP2 monoclonal antibody from hybridoma, recombinantly expressed in a rat IgG2b backbone (antibody, V domains shown)
VH: DVQLVESGGGLVQPGGSRKLSCAASGFTFSTFGMHWVRQAPEKGLEWVAYISSGSSTIYYADTVKGRFTISRDNPKNTLFLQMTSLRSDDTAMYYCSRSYYGSAHYFDYWGQGTTLTVSS
VL: DIQMTQSPASLSVSVGETVTITCRASENIYSNLAWYQQKQGKSPQLLVYVATNLADGVPSRFSGSGSGTQYSLRINNLQSEDFGNYYCQHFWGTPPTFGGGTKLEIK
In the case of B6, the IC50 with rat RXFP2 [2] worked out at 2.85 nM; with rat RXFP2 [1], 23.2 nM; with rat RXFP2 [4], 0.31 nM. The “HEK293-rat RXFP2 cAMP % Max Response” value with rat RXFP2 [1] worked out at 91.0%.

B7: 4H5: RXFP2 monoclonal antibody from hybridoma, recombinantly expressed in a rat IgG2b backbone (antibody, V domains shown)
VH: QVQLKQSGPGLVQPSQSLSITCTVSGFSLTNYGVHWVRQSPGKGLEWLGVIWRDGNTDYNAAFMSRLSITKDNSKSQVFFEMNSLQVDDTAIYYCCRGDGYYAMGYWGQGTSVTVSS
VL: DIQMTQSPASLSVSVGETVTITCRASENIYSNLAWYQQRQGRSPQLLVYAATNLADGVPSRFSGSGSGTQYSLKINSLQSEDFGNYYCQHFWGSPRTFGGGTKLEIK
As to B7, the IC50 with rat RXFP2 [2] is 0.21 nM; with rat RXFP2 [1] it was 14.2 nM; with rat RXFP2 [4], 0.15 nM. Further, the “HEK293-rat RXFP2 cAMP % Max Response” value in the series with rat RXFP2 [1] came out at 89.2%.

B8: 4H2: RXFP2 monoclonal antibody from hybridoma, recombinantly expressed in a rat IgG2b backbone (antibody, V domains shown)
VH: QVQLRQSGPSLVQPSQSLSITCTVSGFSLTNYGVHWVRQSPGKGLEWLGVIWRGGNTDHNAAFMSRLSITKDNSESQVFFKMNSLQVDDTAIYYCAKAEGYYALDYWGQGTSVTVYS
VL: DIQMTQSPASLSVSVGETVTITCRASENIYSNLAWYQQKQGKSPQLLVYAVTNLADGVPSRFSGSGSGTQYSLKINSLQSEDFGSYYCQHFWGTPWTFGGGTKLEIK
With B8, the IC50 worked out at 0.26 nM with rat RXFP2 [2], 18.9 nM in the series with rat RXFP2 [1] and 0.13 nM in the series with rat RXFP2 [4]. In the series with rat RXFP2 [1], the “HEK293-rat RXFP2 cAMP % Max Response” value is 85.7%.

B9: 3H1: RXFP2 monoclonal antibody from hybridoma, recombinantly expressed in a rat IgG2b backbone (antibody, V domains shown)
VH: QVQLKETGPGLVAPSQSLSITCTVSGFSLTNYGVNWVRQPPGKGLEWLVVIWSDGSTNYNSALKSRLSISKDNSKSQVFLKMNSLQTDDTAMYYCARQQGYYAMDYWGQGTSVIVSS
VL: DIQMTQSPASLSVSVGETVTITCRASENIYSNLAWYQQKQGKSPQLLVYAVTNLADGVPSRFSGSGSGTQYSLKINSLQSEDFGSYYCQHFWGPPYTFGGGTKLEIK
Regarding B9, the IC50 amounted to 0.33 nM with rat RXFP2 [2], 15.8 nM in the series with rat RXFP2 [1] and 0.16 nM with rat RXFP2 [4]. The “HEK293-rat RXFP2 cAMP % Max Response” value in the series with rat RXFP2 [1] was found to be 71.6%.
